Data on two molecules can be found in US20230340152A1.

The target in assay [1] is Cynomolgus CD73 ECD (cynomolgus). Nature of the assay: binding assay, format not stated.
The target of another assay is Murine CD73 ECD (murine) (UniProt Q61503). Nature of the assay: binding assay, format not stated.
Sequence of Murine CD73 ECD (murine) (Q61503 29-551 limits assumed): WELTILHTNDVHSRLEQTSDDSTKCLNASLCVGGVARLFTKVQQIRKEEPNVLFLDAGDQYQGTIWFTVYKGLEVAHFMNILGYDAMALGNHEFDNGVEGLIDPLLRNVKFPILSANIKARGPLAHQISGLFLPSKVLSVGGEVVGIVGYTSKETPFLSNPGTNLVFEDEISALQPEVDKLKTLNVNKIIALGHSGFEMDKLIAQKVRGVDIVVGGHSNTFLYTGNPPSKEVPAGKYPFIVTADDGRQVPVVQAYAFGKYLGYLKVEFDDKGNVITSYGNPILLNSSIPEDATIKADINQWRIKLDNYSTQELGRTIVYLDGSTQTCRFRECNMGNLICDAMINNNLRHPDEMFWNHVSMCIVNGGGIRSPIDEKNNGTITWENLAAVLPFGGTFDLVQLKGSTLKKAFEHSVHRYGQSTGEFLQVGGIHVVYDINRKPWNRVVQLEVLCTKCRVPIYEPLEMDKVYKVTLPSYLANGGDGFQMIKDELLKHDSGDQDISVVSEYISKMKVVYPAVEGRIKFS

Sequence of Cynomolgus CD73 ECD (cynomolgus) (chain, as listed by the source): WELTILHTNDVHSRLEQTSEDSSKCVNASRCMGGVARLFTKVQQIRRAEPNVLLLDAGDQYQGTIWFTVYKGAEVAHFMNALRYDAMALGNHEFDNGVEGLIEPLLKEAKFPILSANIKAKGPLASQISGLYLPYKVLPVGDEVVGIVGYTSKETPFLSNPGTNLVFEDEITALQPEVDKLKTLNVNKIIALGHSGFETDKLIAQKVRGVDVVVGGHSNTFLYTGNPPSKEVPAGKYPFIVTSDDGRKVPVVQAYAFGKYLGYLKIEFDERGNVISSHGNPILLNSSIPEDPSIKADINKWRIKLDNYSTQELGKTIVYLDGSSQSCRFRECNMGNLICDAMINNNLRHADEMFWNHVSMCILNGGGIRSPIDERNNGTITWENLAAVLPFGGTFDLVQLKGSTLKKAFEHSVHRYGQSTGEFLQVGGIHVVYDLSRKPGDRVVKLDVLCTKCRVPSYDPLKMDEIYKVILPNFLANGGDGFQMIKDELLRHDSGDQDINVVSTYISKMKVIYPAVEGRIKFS

B1: CD730047 (antibody, V domains shown)
VH: EVQLVQSGGGVVQPGRSLRLSCAASGFTFSSYGMHWVRQAPGKGLEWVAVISYDGSIKYYADSVKGRFAISRDNAKNTLYLQMNSLRREDTAMYYCASGLTGVAGALGVWGRGTLVTVSS
VL: QSVLTQPPSASGAPGQRVTISCSGSSSNIGSNTVNWYQRLPGAAPQLLIYNNDQRPSGIPDRFSGSKSGTSGSLVISGLQSEDEADYYCAAWDDSLSGNVFGTGTKVTVL
Take B1: the 1/EC50 (in assay [1]; in the assay with Murine CD73 ECD (murine)) was 0 nM⁻¹ in each case.

B2: CD730042 (antibody, V domains shown)
VH: GVQLVQSGGGLVQPGGSLRLSCAASGFTFSSYGMHWVRQAPGKGLEWVAVISYDGSIKYYADSVKGRFTISRDDSKNALYLQMNSLRAEDTAVYYCSTLSGSYGYFDYWGRGTLVTVSS
VL: QSVLTQPASVSGSPGQSITISCAGTSSDVGGYNYVSWYQQHPGKAPKLMIYEGSKRPSGVSNRFSGSKSGNTASLTISGLQAEDEADYYCSSYTTRSTRVFGGGTKLTVL
As to B2, in the assay with Murine CD73 ECD (murine), the 1/EC50 is 0 nM⁻¹.
